Starred links: 1 amine or outer side, 2 acyl side, 3 side chain; linkers in the order of their positions; H or OH if unused. Non-standard residues stand in square brackets, D forms with d. Residues, ends and D or L forms follow the SMILES beside them. *: point of attachment. Benzoyl(4-SiFtBu2) = CC(C)(C)[Si](F)(c1ccc(C(=O)*)cc1)C(C)(C)C; DOTA = O=C(O)CN1CCN(CC(=O)O)CCN(CC(=O)*)CCN(CC(=O)O)CC1; d(γGlu) = O=C(O)[C@@H](CCC(=O)[*:2])N[*:1]; 1Nal = N[C@@H](Cc1cccc2ccccc12)C(=O)O; Hyp = O=C(O)[C@@H]1C[C@@H](O)CN1; NMeNle = CCCC[C@H](NC)C(=O)O; PEG4 = NCCOCCOCCOCCOCCC(=O)O; dDap = NC[C@@H](N)C(=O)O
Target: T1, Human serum albumin (HSA) (Homo sapiens, UniProt P02768)
T1 construct: purchased Daicel, Tokyo, Japan H13H-2433
Experiment: Determination of HSA binding on a Chiralpak HSA column
Type: in vitro ADME
Conditions: Tab. 8; metal not stated (Fig. 18: ^natLu)
Procedure, shortened: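 Retention on an HSA column with a 50 mM NH4OAc (pH 6.9)/isopropanol gradient at 0.5 mL/min, rt; samples run at 0.5 mg/mL in A/B (1/1). Binding derived by non-linear regression against nine reference compounds spanning 13 to 99% HSA binding.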

T1 sequence (P02768 25-609): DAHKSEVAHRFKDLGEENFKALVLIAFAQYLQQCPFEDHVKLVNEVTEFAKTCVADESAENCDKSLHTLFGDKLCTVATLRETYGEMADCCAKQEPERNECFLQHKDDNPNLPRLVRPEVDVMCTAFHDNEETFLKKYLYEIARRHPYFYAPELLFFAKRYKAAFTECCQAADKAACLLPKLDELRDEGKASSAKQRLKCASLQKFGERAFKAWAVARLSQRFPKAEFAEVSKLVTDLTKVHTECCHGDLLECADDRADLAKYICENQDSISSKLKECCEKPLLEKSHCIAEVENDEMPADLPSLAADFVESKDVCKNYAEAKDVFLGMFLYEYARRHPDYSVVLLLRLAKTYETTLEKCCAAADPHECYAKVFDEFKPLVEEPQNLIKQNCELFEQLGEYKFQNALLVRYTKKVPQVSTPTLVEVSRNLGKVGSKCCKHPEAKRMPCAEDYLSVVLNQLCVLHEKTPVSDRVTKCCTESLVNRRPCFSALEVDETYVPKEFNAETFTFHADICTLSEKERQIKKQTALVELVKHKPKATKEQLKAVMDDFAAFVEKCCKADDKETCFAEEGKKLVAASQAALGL

Structure (SMILES): CCCC[C@@H](C(=O)N[C@@H](CC(=O)O)C(=O)N[C@@H](Cc1cccc2ccccc12)C(N)=O)N(C)C(=O)[C@H](Cc1c[nH]c2ccccc12)NC(=O)CCOCCOCCOCCOCCNC(=O)CC[C@@H](NC(=O)[C@@H]1C[C@@H](O)CN1C(=O)[C@@H]1C[C@@H](O)CN1C(=O)[C@@H]1C[C@@H](O)CN1C(=O)[C@@H]1C[C@@H](O)CN1C(=O)[C@@H]1C[C@@H](O)CN1C(=O)[C@@H]1C[C@@H](O)CN1C(=O)CC[C@@H](NC(=O)[C@@H](CNC(=O)c1ccc([Si](F)(C(C)(C)C)C(C)(C)C)cc1)NC(=O)CN1CCN(CC(=O)O)CCN(CC(=O)O)CCN(CC(=O)O)CC1)C(=O)O)C(=O)O [DOTA-rhCCK-84, DOTA-dap(SiFA)-γ-glu-(Hyp)6-γ-glu-(PEG)3-Trp-(N-Me)Nle-Asp-1-Nal-NH2] ({DOTA}-[dDap](Benzoyl(4-SiFtBu2))[d(γGlu)][Hyp][Hyp][Hyp][Hyp][Hyp][Hyp][d(γGlu)][PEG4]W[NMeNle]D[1Nal]-NH2)
- HSA binding [%]: 90.0%

— patent EP4631959A2, “NOVEL MINIGASTRIN-DERIVED CHOLECYSTOKININ 2 RECEPTOR BINDING MOLECULES FOR IMAGING AND TARGETED RADIOTHERAPY” (priority 2022, dated 2024)
